T1: recombinant human CD70 (AviTag, polyhistidine tag and chicken tenascin trimerization domain fused to the … (chicken; human, UniProt P10039 110-139, limits assumed)
T1 construct: domain: trimerization domain; Expressed in Expi293, purified by IMAC and SEC; Copies 3 is inferred from the trimerization domain; not shown: AviTag; polyhistidine tag
T1 sequence: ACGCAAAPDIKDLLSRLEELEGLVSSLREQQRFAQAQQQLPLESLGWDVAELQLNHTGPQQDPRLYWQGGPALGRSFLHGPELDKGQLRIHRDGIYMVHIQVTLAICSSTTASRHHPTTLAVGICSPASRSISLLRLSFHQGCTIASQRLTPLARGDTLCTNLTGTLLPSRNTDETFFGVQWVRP

B1: P07D03 anti-CD70 scFv-Fc fusion (Fc fusion)
chain: EVQLVQSGAEVKKPGESLKISCKGSGYRFTSYWIGWVRQMPGKGLEWMGSIYPDDSDTRYSPSFQGQVTISADKSISTAYLQWSSLKASDTAMYYCASSTVDYPGYSYFDYWGQGTLVTVSSGGGGSGGGGSGGGGSGGGGSELQSVLTQPPSASGTPGQRVTISCSGSRSNIGSNYVYWYQQLPGTAPKLLIYRNNQRPSGVPDRFSGSKSGTSASLAISGLRSEDEADYYCASWDGSLSAVVFGTGTKLTVL
notes: scFv-Fc expressed in Expi293; not shown: part of the hinge and Fc from a modified human IgG2
B2: P02B10 anti-CD70 scFv-Fc fusion (Fc fusion)
chain: EVQLLESGGGLVQPGGSLRLSCAASGFAFSNYAMSWVRQAPGKGLEWVSAIRGGGGSTYYADSVKGRFTISRDNSKNTLYLQMNSLRAEDTAVYYCARDFISGTWYPDYWGQGTLVTVSSGGGGSGGGGSGGGGSGGGGSELQSVLTQPPSASGTPGQRVTISCSGSSSNIGSNYVYWYQQLPGTAPKLLIYRNNQRPSGVPDRFSGSKSGTSASLAISGLRSEDEADYYCAAWDDSLSGVVFGGGTKLTVL
notes: as for B1
B3: P08A02 anti-CD70 scFv-Fc fusion (Fc fusion)
chain: EVQLVQSGAEVKKPGESLKISCKGSGYTFTNYWIAWVRQMPGKGLEWMGIIYPDGSDTRYSPSFQGQVTISADKSISTAYLQWSSLKASDTAMYYCARDITSWYYGEPAFDIWGQGTLVTVSSGGGGSGGGGSGGGGSGGGGSELQSVLTQPPSASGTPGQRVTISCSGSSSNIGSNYVYWYQQLPGTAPKLLIYRNNQRPSGVPDRFSGSKSGTSASLAISGLRSEDEADYYCATWDDSLGSPVFGTGTKLTVL
notes: as for B1

The binders below were run against T1, recombinant human CD70 (AviTag, …) (assay: SPR (Biacore 8K, 37 C): CD70 captured via anti-AviTag antibody on C1 chip, scFv-Fc as analyte; 1:1 steady state affinity fit (SS KD)).
Method: The antibody binding kinetics were determined by surface plasmon resonance (Biacore 8K, GE Healthcare Bio-Sciences, Pittsburgh Pa.) at 37° C. in HBS-T+ (0.01 M HEPES pH 7.4, 0.15 M NaCl, 0.05% v/v Tween20, 1 mg/mL BSA). Recombinant human CD70 diluted in HBS-T+ was captured on a C1 chip immobilized with an anti-AviTag™ antibody. Purified anti-CD70 scFv-Fc fusions were serially diluted into HBS-T+, injected at 30 uL/min for 2-4 min, dissociation monitored for 10 min then the surface regenerated with 75 mM phosphoric acid between injections. Buffer cycles were collected for each anti-CD70 scFv-Fc fusion for double-referencing purposes (double-referencing as described in Myszka, D. G. Improving biosensor analysis. J. Mol. Recognit. 12, 279-284 (1999)). Kinetic association rates (kₒₙ) and dissociation rates (koff) were obtained simultaneously by fitting the double-referenced sensorgrams globally to a 1:1 Langmuir with mass transport model using Biacore 8K Evaluation Software (GE Healthcare Bio-Sciences, Pittsburgh Pa.) then used to calculate an equilibrium dissociation constant (KD) from the kinetic rate constants (KD=koff/kₒₙ). The data was fit to a 1:1 steady state affinity model using Biacore 8K Evaluation Software to determine a steady state equilibrium dissociation constant (SS KD) as needed.

| Kd | Binder |
| --- | --- |
| 1070 nM | B1 |
| 355 nM | B2 |
| 1200 nM | B3 |

Source: US20190233528A1 (published 2019)
